{"source": "paper doi:10.1101/2022.09.27.509696", "about": "(bioRxiv, 2022)", "binders": {"B1": {"name": "SmBiT-FAM237A (ligand)", "chain": "HSQTDLLALSQADPQCWESSSVLLLEMWKPRVSNTVSGFWDFMIYLKSSENLKHGALFWDLAQLFWDIYVDCVLSRNHGL"}, "B2": {"name": "mature human FAM237A (family with sequence similarity 237 member A) (ligand)", "chain": "B1 chain", "modifications": "amidated C-terminus; one intramolecular disulfide bond"}}, "assay_in_all_cases": "split reporter", "key": {"[1]": {"biological_target": "T1, sLgBiT-GPR83 (N-terminally sLgBiT-fused mature human GPR83) (human, UniProt Q9NYM4-1 17-423)", "T1 sequence (Q9NYM4 17-423)": "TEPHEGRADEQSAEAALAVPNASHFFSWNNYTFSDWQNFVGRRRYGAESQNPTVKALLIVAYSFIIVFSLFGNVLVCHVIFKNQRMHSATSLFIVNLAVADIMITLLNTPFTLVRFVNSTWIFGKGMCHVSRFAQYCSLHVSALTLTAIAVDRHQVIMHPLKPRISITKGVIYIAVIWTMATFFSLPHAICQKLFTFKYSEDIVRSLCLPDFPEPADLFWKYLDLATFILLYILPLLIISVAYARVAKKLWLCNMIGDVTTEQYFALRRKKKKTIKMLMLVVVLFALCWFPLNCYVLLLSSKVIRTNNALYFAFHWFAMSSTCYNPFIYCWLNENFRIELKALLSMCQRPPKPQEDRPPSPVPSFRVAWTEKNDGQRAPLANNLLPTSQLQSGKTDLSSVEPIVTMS"}, "[2]": {"biological_target": "T1, sLgBiT-GPR83 (N-terminally sLgBiT-fused …)", "remark": "listed apart in the source"}, "[3]": {"biological_target": "T1, sLgBiT-GPR83 (N-terminally sLgBiT-fused …)", "remark": "listed apart in the source"}}, "note": "Where “and” joins values, the source holds several entries; their conditions need not be identical. Equal values may be shown once.", "data": [{"binder": "B1", "values": [{"measurement": "association half-life", "setting": "[1]", "value": "~3", "unit": "min"}, {"measurement": "dissociation half-life", "setting": "[1]", "value": "~7.5", "unit": "min"}, {"measurement": "Kd", "setting": "[2]", "value": "~70", "unit": "nM"}]}, {"binder": "B2", "values": [{"measurement": "IC50", "setting": "[3]", "value": "13.5 nM and 12.9 nM and 16.9 nM"}]}]}
